Assay results taken from patent US20240209095A1 (DEVELOPMENT CENTER FOR BIOTECHNOLOGY, published 2024).

B1: 3C3 heavy chain M / light chain Hu (antibody, V domains shown)
VH: EVQLQESGPGLTKPSQTLSLTCSVTGYSITSDYWDWIRKFPGNKLEYMGYISYTGSTYYNPSLRSRISITRDTSKNQYYLQLSSVTSEDSATYYCARRGGWLSPFVYWGQGTLVTVSA
VL: DIQMTQSPSSLSASVGDRVTITCKSRQSLLFSSNQKNSLAWYQQKPGKAPKLLIYWASTRESGVPSRFSGSGSGTDFTLTISSLQPEDFATYYCQQYYTYPFTFGQGTKLEIK
notes: Human IgG, kappa, from pTCAED vectors; tested as culture supernatant
B2: 3C3 heavy chain M / light chain Hu2 (antibody, V domains shown)
VH: EVQLQESGPGLTKPSQTLSLTCSVTGYSITSDYWDWIRKFPGNKLEYMGYISYTGSTYYNPSLRSRISITRDTSKNQYYLQLSSVTSEDSATYYCARRGGWLSPFVYWGQGTLVTVSA
VL: DIVMTQTPLSLSVTPGQPASISCKSRQSLLFSSNQKNSLAWYLQKPGQSPQLLIYWASTRESGVPDRFSGSGSGTDFTLKISRVEAEDVGVYYCQQYYTYPFTFGQGTKLEIK
notes: as for B1
B3: mouse-human chimera 3C3 MM (antibody, V domains shown)
VH: EVQLQESGPGLTKPSQTLSLTCSVTGYSITSDYWDWIRKFPGNKLEYMGYISYTGSTYYNPSLRSRISITRDTSKNQYYLQLSSVTSEDSATYYCARRGGWLSPFVYWGQGTLVTVSA
VL: DTVMSQSPSSLGVSVGERVTLTCKSRQSLLFSSNQKNSLAWYQQKPGQSPKLLIYWASTRESGVPDRFTGSGSGTDFTLTISSVKSEDLAVYYCQQYYTYPFTFGAGTSLELK
notes: Variable regions in human chimera antibody expression vectors pTCAED heavy and light; human IgG, kappa (detected with anti-human Kappa); also called 3C3 heavy chain M / light chain M; chimera PD-L1
B4: 3C3 heavy chain Hu-B1 / light chain Hu0 (antibody, V domains shown)
VH: EVQLQESGPGLVKPSQTLSLTCTVSGYSITSDYWDWIRQPPGKGLEWMGYISYTGSTYYNPSLRSRITISRDTSKNQYSLKLSSVTAADTAVYYCARRGGWLSPFVYWGQGTLVTVSS
VL: DIVMTQSPDSLAVSLGERATINCKSRQSLLFSSNQKNSLAWYQQKPGQPPKLLIYWASTRESGVPDRFSGSGSGTDFTLTISSLQAEDVAVYYCQQYYTYPFTFGQGTKLEIK
notes: as for B1
B5: 3C3 heavy chain Hu-B1 / light chain M (antibody, V domains shown)
VH: EVQLQESGPGLVKPSQTLSLTCTVSGYSITSDYWDWIRQPPGKGLEWMGYISYTGSTYYNPSLRSRITISRDTSKNQYSLKLSSVTAADTAVYYCARRGGWLSPFVYWGQGTLVTVSS
VL: DTVMSQSPSSLGVSVGERVTLTCKSRQSLLFSSNQKNSLAWYQQKPGQSPKLLIYWASTRESGVPDRFTGSGSGTDFTLTISSVKSEDLAVYYCQQYYTYPFTFGAGTSLELK
notes: as for B1
B6: 3C3 heavy chain Hu-B1 / light chain Hu2 (antibody, V domains shown)
VH: EVQLQESGPGLVKPSQTLSLTCTVSGYSITSDYWDWIRQPPGKGLEWMGYISYTGSTYYNPSLRSRITISRDTSKNQYSLKLSSVTAADTAVYYCARRGGWLSPFVYWGQGTLVTVSS
VL: DIVMTQTPLSLSVTPGQPASISCKSRQSLLFSSNQKNSLAWYLQKPGQSPQLLIYWASTRESGVPDRFSGSGSGTDFTLKISRVEAEDVGVYYCQQYYTYPFTFGQGTKLEIK
notes: as for B1
B7: 3C3 heavy chain M / light chain Hu0 (antibody, V domains shown)
VH: EVQLQESGPGLTKPSQTLSLTCSVTGYSITSDYWDWIRKFPGNKLEYMGYISYTGSTYYNPSLRSRISITRDTSKNQYYLQLSSVTSEDSATYYCARRGGWLSPFVYWGQGTLVTVSA
VL: DIVMTQSPDSLAVSLGERATINCKSRQSLLFSSNQKNSLAWYQQKPGQPPKLLIYWASTRESGVPDRFSGSGSGTDFTLTISSLQAEDVAVYYCQQYYTYPFTFGQGTKLEIK
notes: as for B1
B8: 3C3 heavy chain Hu-B1 / light chain Hu (antibody, V domains shown)
VH: EVQLQESGPGLVKPSQTLSLTCTVSGYSITSDYWDWIRQPPGKGLEWMGYISYTGSTYYNPSLRSRITISRDTSKNQYSLKLSSVTAADTAVYYCARRGGWLSPFVYWGQGTLVTVSS
VL: DIQMTQSPSSLSASVGDRVTITCKSRQSLLFSSNQKNSLAWYQQKPGKAPKLLIYWASTRESGVPSRFSGSGSGTDFTLTISSLQPEDFATYYCQQYYTYPFTFGQGTKLEIK
notes: as for B1
B9: 3C3 heavy chain Hu / light chain M (antibody, V domains shown)
VH: QVQLQESGPGLVKPSQTLSLTCTVSGYSITSDYWDWIRQPPGKGLEWIGYISYTGSTYYNPSLRSRVTISVDTSKNQFSLKLSSVTAADTAVYYCARRGGWLSPFVYWGQGTLVTVSS
VL: DTVMSQSPSSLGVSVGERVTLTCKSRQSLLFSSNQKNSLAWYQQKPGQSPKLLIYWASTRESGVPDRFTGSGSGTDFTLTISSVKSEDLAVYYCQQYYTYPFTFGAGTSLELK
notes: as for B1
B10: 1G8 humanized antibody HuHu0 (antibody, V domains shown)
VH: QVQLQESGPGLVKPSQTLSLTCTVSGYSITSDYWNWIRQPPGKGLEWIGYISYTGSTYYNPSLKSRVTISVDTSKNQFSLKLSSVTAADTAVYYCARRGEWLSPFAYWGQGTLVTVSS
VL: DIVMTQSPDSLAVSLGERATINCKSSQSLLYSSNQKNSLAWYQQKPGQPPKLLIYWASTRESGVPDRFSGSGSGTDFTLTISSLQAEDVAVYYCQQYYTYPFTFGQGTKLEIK
notes: Human IgG, kappa, from pTCAED vectors; also called 1G8 HuHu0
B11: 3C3 humanized antibody HuHu0 (antibody, V domains shown)
VH: QVQLQESGPGLVKPSQTLSLTCTVSGYSITSDYWDWIRQPPGKGLEWIGYISYTGSTYYNPSLRSRVTISVDTSKNQFSLKLSSVTAADTAVYYCARRGGWLSPFVYWGQGTLVTVSS
VL: DIVMTQSPDSLAVSLGERATINCKSRQSLLFSSNQKNSLAWYQQKPGQPPKLLIYWASTRESGVPDRFSGSGSGTDFTLTISSLQAEDVAVYYCQQYYTYPFTFGQGTKLEIK
notes: Human IgG, kappa, from pTCAED vectors; also called 3C3 heavy chain Hu / light chain Hu0
B12: 3C3 humanized antibody HuB2Hu0 (antibody, V domains shown)
VH: EVQLQESGPGLVKPSQTLSLTCTVSGYSITSDYWDWIRKPPGKGLEYMGYISYTGSTYYNPSLRSRITISRDTSKNQYSLKLSSVTAADTAVYYCARRGGWLSPFVYWGQGTLVTVSS
VL: DIVMTQSPDSLAVSLGERATINCKSRQSLLFSSNQKNSLAWYQQKPGQPPKLLIYWASTRESGVPDRFSGSGSGTDFTLTISSLQAEDVAVYYCQQYYTYPFTFGQGTKLEIK
notes: Human IgG, kappa, from pTCAED vectors; also called 3C3-HuB2Hu0; 3C3 HuB2Hu0
B13: 1G8 humanized antibody HuB2Hu2 (antibody, V domains shown)
VH: EVQLQESGPGLVKPSQTLSLTCTVSGYSITSDYWNWIRKPPGKGLEYMGYISYTGSTYYNPSLKSRITISRDTSKNQYSLKLSSVTAADTAVYYCARRGEWLSPFAYWGQGTLVTVSS
VL: DIVMTQTPLSLSVTPGQPASISCKSSQSLLYSSNQKNSLAWYLQKPGQSPQLLIYWASTRESGVPDRFSGSGSGTDFTLKISRVEAEDVGVYYCQQYYTYPFTFGQGTKLEIK
notes: Human IgG, kappa, from pTCAED vectors; also called 1G8 HuB2Hu2
B14: 3C3 heavy chain Hu-B2 / light chain M (antibody, V domains shown)
VH: EVQLQESGPGLVKPSQTLSLTCTVSGYSITSDYWDWIRKPPGKGLEYMGYISYTGSTYYNPSLRSRITISRDTSKNQYSLKLSSVTAADTAVYYCARRGGWLSPFVYWGQGTLVTVSS
VL: DTVMSQSPSSLGVSVGERVTLTCKSRQSLLFSSNQKNSLAWYQQKPGQSPKLLIYWASTRESGVPDRFTGSGSGTDFTLTISSVKSEDLAVYYCQQYYTYPFTFGAGTSLELK
notes: as for B1
B15: 1G8 humanized antibody HuB2Hu0 (antibody, V domains shown)
VH: EVQLQESGPGLVKPSQTLSLTCTVSGYSITSDYWNWIRKPPGKGLEYMGYISYTGSTYYNPSLKSRITISRDTSKNQYSLKLSSVTAADTAVYYCARRGEWLSPFAYWGQGTLVTVSS
VL: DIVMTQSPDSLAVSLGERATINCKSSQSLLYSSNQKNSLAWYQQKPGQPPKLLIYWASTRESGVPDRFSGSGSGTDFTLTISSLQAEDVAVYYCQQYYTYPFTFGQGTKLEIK
notes: Human IgG, kappa, from pTCAED vectors; also called 1G8 HuB2Hu0
B16: 1G8 humanized antibody HuB2Hu (antibody, V domains shown)
VH: EVQLQESGPGLVKPSQTLSLTCTVSGYSITSDYWNWIRKPPGKGLEYMGYISYTGSTYYNPSLKSRITISRDTSKNQYSLKLSSVTAADTAVYYCARRGEWLSPFAYWGQGTLVTVSS
VL: DIQMTQSPSSLSASVGDRVTITCKSSQSLLYSSNQKNSLAWYQQKPGKAPKLLIYWASTRESGVPSRFSGSGSGTDFTLTISSLQPEDFATYYCQQYYTYPFTFGQGTKLEIK
notes: Human IgG, kappa, from pTCAED vectors; also called 1G8 HuB2Hu
B17: 1G8 humanized antibody HuHu2 (antibody, V domains shown)
VH: QVQLQESGPGLVKPSQTLSLTCTVSGYSITSDYWNWIRQPPGKGLEWIGYISYTGSTYYNPSLKSRVTISVDTSKNQFSLKLSSVTAADTAVYYCARRGEWLSPFAYWGQGTLVTVSS
VL: DIVMTQTPLSLSVTPGQPASISCKSSQSLLYSSNQKNSLAWYLQKPGQSPQLLIYWASTRESGVPDRFSGSGSGTDFTLKISRVEAEDVGVYYCQQYYTYPFTFGQGTKLEIK
notes: Human IgG, kappa, from pTCAED vectors; also called 1G8 HuHu2
B18: 1G8 humanized antibody HuHu (antibody, V domains shown)
VH: QVQLQESGPGLVKPSQTLSLTCTVSGYSITSDYWNWIRQPPGKGLEWIGYISYTGSTYYNPSLKSRVTISVDTSKNQFSLKLSSVTAADTAVYYCARRGEWLSPFAYWGQGTLVTVSS
VL: DIQMTQSPSSLSASVGDRVTITCKSSQSLLYSSNQKNSLAWYQQKPGKAPKLLIYWASTRESGVPSRFSGSGSGTDFTLTISSLQPEDFATYYCQQYYTYPFTFGQGTKLEIK
notes: Human IgG, kappa, from pTCAED vectors; also called 1G8 HuHu

Key:
PDL1-hFc [1] = target: T1, PDL1-hFc (UniProt Q9NZQ7 19-238); assay: ELISA, PDL1-hFc coated 1 µg/ml, antibody supernatant at 300 ng/ml, anti-human Kappa HRP
T1 construct: Coated at 1 µg/ml in the ELISAs of the chimeric and humanized antibodies; construct not described
T1 sequence (Q9NZQ7 19-238): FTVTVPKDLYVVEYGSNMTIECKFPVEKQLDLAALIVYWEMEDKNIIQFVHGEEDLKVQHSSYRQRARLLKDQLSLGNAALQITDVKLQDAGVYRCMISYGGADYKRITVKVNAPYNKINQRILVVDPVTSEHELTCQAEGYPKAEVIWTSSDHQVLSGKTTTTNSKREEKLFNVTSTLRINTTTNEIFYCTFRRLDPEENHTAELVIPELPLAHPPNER
Protocol: The binding activity of humanized antibodies could be efficiently compared by all combination of heavy chains and light chains using mini scale antibody expression. The concentration of antibodies in culture supernatant was determent by anti-human IgG ELISA. For PDL1 ELISA, plates were coating with PDL1-hFc 1 μg/ml and blocked by 5% milk PBS. Assay antibodies were adjusted to 300 ng/ml, 100 μl/well. Anti-PDL1 signals were measured by secondary goat anti-human Kappa HRP IgG 1:4000 and color developed by TMB substrates (KPL). Optical absorption value was measured at OD450-655 nm by Bio-Rad ELISA reader.

PDL1-hFc [2] = target: T1, PDL1-hFc; assay: ELISA titration on PDL1-hFc 1 ug/ml, 45 nM to 2.7×10^-3 nM, one site-specific binding fit
Protocol: (§1) ELISA plates were coating with PDL1-hFc 1 ug/ml and blocked by 5% milk PBS, then add assay antibodies form 45 nM to 2.7×10⁻³ nM dilute (4× fold dilution). Assay will measured by add goat anti-human KAPPA HRP IgG 1:4000 and binding curve and KD was determined by GraphPad Prism software using One site-specific binding for none linear fit methods.

PDL1-hFc [3] = target: T1, PDL1-hFc; assay: ELISA titration on PDL1-hFc, KD compared with parental 3C3 (FIG. 10)
Protocol: as §1

[4] = target: human PD-L1 expressed on cells (HCC827 cells; PD-L1 aAPC/CHO-K1 cells) (human, UniProt Q9NZQ7 19-290); assay: cell-based or functional assay
human PD-L1 expressed on cells (HCC827 cells; PD-L1 aAPC/CHO-K1 cells), sequence (Q9NZQ7 19-290): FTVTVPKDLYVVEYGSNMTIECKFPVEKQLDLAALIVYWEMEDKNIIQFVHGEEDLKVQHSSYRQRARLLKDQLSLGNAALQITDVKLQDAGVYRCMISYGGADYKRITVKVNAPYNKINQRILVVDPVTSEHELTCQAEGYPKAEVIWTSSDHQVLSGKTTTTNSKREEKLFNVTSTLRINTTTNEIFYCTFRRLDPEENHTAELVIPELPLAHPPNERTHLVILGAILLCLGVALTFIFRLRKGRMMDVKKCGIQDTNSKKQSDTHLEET

Row | Binder | OD450-650 nM, 300 ng/ml PDL1 binding (PDL1-hFc [1]) | Kd (PDL1-hFc [2]) | further results
1 | B1 | 1.85 OD | – | –
2 | B2 | 1.55 OD | – | –
3 | B3 | 1.52 OD | – | –
4 | B4 | 0.539 OD | – | –
5 | B5 | 0.61 OD | – | –
6 | B6 | 0.349 OD | – | –
7 | B7 | 1.58 OD | – | –
8 | B8 | 0.455 OD | – | –
9 | B9 | 0.25 OD | – | –
10 | B10 | – | 3990 pM | –
11 | B11 | 0.15 OD | – | –
12 | B12 | 1.13 OD | 108 pM | fold affinity loss against parental mouse clone 3C3 (PDL1-hFc [3]): < 2 fold; 3C3 humanized antibodies Blockade Reporter Assay EC50 [4]: 477 pM
13 | B13 | – | 108 pM | –
14 | B14 | 1.2 OD | – | –
15 | B15 | – | 238 pM | –
16 | B16 | – | 248 pM | –
17 | B17 | – | 9680 pM | –
18 | B18 | – | 3240 pM | –
